Publication PMC4499159

How the values were obtained:
[1] = biological target: DNA polymerase beta (Polβ) (rat) (UniProt P06766); assay: fluorescence titration; details: 50 mM HEPES pH 8.0, 100 mM NaCl, 4 mM DTT (+10 mM EDTA for APE1), labelled protein from 20 nM, temperature not stated
XRCC1 (human) = XRCC1 (human) (UniProt P18887); assay: fluorescence titration; details: 50 mM HEPES pH 8.0, 100 mM NaCl, 4 mM DTT (+10 mM EDTA for APE1), labelled protein from 20 nM, temperature not stated
[2] = biological target: AP endonuclease 1 (APE1) (human) (UniProt P27695); assay: fluorescence titration; details: 50 mM HEPES pH 8.0, 100 mM NaCl, 4 mM DTT (+10 mM EDTA for APE1); labelled protein from 20 nM; temperature not stated
[3] = biological target: FAM-labeled human apurinic/apyrimidinic endonuclease 1 (human) (UniProt P27695); assay: other fluorescence titration; 40 nM FAM-APE1 premixed with 160 nM AP-DNA, titrated with unlabeled partner; 50 mM HEPES pH 8.0, 100 mM NaCl, 4 mM DTT, 10 mM EDTA; EC50 from four-parameter fit, apparent
[4] = biological target: FAM-labeled human apurinic/apyrimidinic endonuclease 1 (human) (UniProt P27695); assay: other fluorescence titration; 40 nM FAM-APE1 premixed with 160 nM gap-DNA, titrated with unlabeled partner; 50 mM HEPES pH 8.0, 100 mM NaCl, 4 mM DTT, 10 mM EDTA; EC50 from four-parameter fit, apparent
[5] = biological target: FAM-labeled human apurinic/apyrimidinic endonuclease 1 (human) (UniProt P27695); assay: other fluorescence titration; 40 nM FAM-APE1 premixed with 160 nM incised AP-DNA, titrated with unlabeled partner; 50 mM HEPES pH 8.0, 100 mM NaCl, 4 mM DTT, 10 mM EDTA; EC50 from four-parameter fit, apparent
[6] = biological target: apurinic/apyrimidinic endonuclease 1 (human) (UniProt P27695); assay: dynamic light scattering; individual proteins or equimolar mixtures at 6 μM; 25 mM HEPES pH 7.5, 100 mM NaCl, 1 mM DTT; 24°C; hydrodynamic radius compared with predicted values
[7] = biological target: apurinic/apyrimidinic endonuclease 1 (human) (UniProt P27695); assay: other fluorescence titration; FAM-labelled protein at 40 nM (fixed) titrated with the unlabelled partner; 50 mM HEPES pH 8.0, 100 mM NaCl, 4 mM DTT; excitation 485 nm, emission 520 nm; EC50 from a four-parameter logistic fit, an apparent equilibrium dissociation constant
DNA polymerase β (rat) = DNA polymerase β (rat) (UniProt P06766); assay: FRET or BRET; FAM-labelled protein (donor, 40 nM, fixed) titrated with the TMR-labelled partner (acceptor); corrected for acceptor signal; E = 1 - Fda/Fd; EC50 is that of the TMR-labelled partner; 50 mM HEPES pH 8.0, 100 mM NaCl, 4 mM DTT; apparent
[8] = biological target: apurinic/apyrimidinic endonuclease 1 (human) (UniProt P27695); assay: as above
[9] = biological target: X-ray repair cross-complementing protein 1 (human) (UniProt P18887); assay: other fluorescence titration; TAF-labelled XRCC1 at 40 nM (fixed) titrated with the unlabelled partner; 50 mM HEPES pH 8.0, 100 mM NaCl, 4 mM DTT; EC50 from a four-parameter logistic fit, apparent
[10] = biological target: X-ray repair cross-complementing protein 1 (human) (UniProt P18887); assay: dynamic light scattering; individual proteins or equimolar mixtures at 6 μM; 25 mM HEPES pH 7.5, 100 mM NaCl, 1 mM DTT; 24°C; hydrodynamic radius compared with predicted values

Q: Which K half [1] does the source give for pUC19 here?
A: 2400 nM

Q: What about the K half (XRCC1 (human); TAF-XRCC1, n 0.63) of the same substance?
A: 1700 nM

Q: With “GGCGATTAAGTTGGGNAACGTCAGGGTCTTCC / GGAAGACCCTGACGTTACCCAACTTAATCGCC [AP-DNA]” as the substance, how does the K half ([1]; N16 of strand 1 = THF abasic site) read?
A: 20 nM

Q: Which K half [1] does the source give for “GGCGATTAAGTTGGGTAACGTCAGGGTCTTCC (double strand) [ds-DNA]” here?
A: 160 nM

Q: What about the K half [2] of the same substance?
A: 100 nM

Q: What about the K half (XRCC1 (human)) of the same substance?
A: 110 nM

Q: For nick-pUC19, which K half ([1]; nicked by N.Bst9I) is on record?
A: 30 nM

Q: And the K half (XRCC1 (human); TAF-XRCC1, n 0.60, nicked by N.Bst9I)?
A: 10 nM

Q: How did the EC50 [3] turn out when “human X-ray repair cross-complementing protein 1 (from UniProt P18887 1-633) (natural protein)” was run?
A: 78 nM

Q: What about the EC50 [4] of the same substance?
A: 51 nM

Q: What about the EC50 [5] of the same substance?
A: 83 nM

Q: What does the source list for “apurinic/apyrimidinic endonuclease 1 (from UniProt P27695 1-318) (enzyme)”?
A: stoichiometry N [6]: 2; EC50 [7]: 120 nM; stoichiometry N [7]: 2; EC50 (DNA polymerase β (rat)): 90 nM; FRET efficiency E (DNA polymerase β (rat)): 0.37; EC50 [8]: 130 nM

Q: Which EC50 [9] does the source give for “X-ray repair cross-complementing protein 1 (from UniProt P18887 1-633) (natural protein)” here?
A: 73 nM

Q: What about the stoichiometry N [10] of the same substance?
A: 2

Q: And the EC50 [7]?
A: 76 nM
